Patent US20200149021, “SYSTEM AND METHOD FOR GENOME EDITING” (INSTITUTE OF ZOOLOGY, CHINESE ACADEMY OF SCIENCES, published 2020)

Biological target: T1, HkCpf1 (Helcococcus kunzii)
T1 chain: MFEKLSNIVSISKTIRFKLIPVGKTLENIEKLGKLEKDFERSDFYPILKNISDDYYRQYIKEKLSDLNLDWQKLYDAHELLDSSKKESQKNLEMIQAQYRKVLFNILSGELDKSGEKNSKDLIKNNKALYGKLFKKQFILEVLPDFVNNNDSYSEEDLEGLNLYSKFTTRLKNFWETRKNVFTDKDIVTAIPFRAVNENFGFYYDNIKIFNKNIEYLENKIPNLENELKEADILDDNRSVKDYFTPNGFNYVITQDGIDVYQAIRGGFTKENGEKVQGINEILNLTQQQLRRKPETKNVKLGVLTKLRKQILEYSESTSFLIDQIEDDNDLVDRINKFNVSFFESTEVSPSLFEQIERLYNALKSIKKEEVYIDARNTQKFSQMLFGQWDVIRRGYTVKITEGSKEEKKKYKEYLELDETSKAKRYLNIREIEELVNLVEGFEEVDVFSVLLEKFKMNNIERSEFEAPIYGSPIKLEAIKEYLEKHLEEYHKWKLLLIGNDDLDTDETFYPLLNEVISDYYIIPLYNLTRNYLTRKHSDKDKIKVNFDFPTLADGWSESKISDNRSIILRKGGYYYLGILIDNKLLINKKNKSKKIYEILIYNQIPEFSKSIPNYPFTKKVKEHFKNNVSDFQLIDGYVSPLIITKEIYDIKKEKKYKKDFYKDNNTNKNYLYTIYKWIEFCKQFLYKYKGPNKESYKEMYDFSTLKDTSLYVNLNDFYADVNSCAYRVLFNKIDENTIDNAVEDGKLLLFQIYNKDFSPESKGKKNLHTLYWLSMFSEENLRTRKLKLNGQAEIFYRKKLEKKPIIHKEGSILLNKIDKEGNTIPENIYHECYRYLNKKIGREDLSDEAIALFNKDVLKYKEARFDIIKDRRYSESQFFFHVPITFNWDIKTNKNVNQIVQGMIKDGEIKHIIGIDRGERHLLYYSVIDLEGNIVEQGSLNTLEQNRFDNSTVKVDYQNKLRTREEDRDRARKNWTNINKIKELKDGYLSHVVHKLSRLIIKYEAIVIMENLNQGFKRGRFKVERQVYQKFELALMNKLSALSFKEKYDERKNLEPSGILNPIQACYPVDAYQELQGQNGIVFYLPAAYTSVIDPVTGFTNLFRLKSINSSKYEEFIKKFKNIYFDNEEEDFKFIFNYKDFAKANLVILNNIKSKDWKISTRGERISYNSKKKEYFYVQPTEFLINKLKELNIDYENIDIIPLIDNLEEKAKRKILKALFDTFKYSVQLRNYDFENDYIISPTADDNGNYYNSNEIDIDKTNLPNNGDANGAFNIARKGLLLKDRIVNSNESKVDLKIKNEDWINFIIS
Experiment: cell_activity; PAM TTTC; T7EI
Conditions: tags: HA (2A-eGFP vector)
Protocol: GFP-positive cells were sorted by FACS, lysed with Buffer L+ 1/100V Protease K (Biotool) at 55° C. for 30 min, inactivated at 95° C. for 5 min, and directly used for PCR detection. Appropriate primers were designed near the Cpf1 targeting site, and the amplified product was purified using DNA Clean & Concentrator™-5 kit (ZYMO Research). 200 ng of purified PCR product was added into 1 uL of NEBuffer2 (NEB) and diluted to 10 uL with ddH₂O. Then, heterodimers were formed by re-annealing according to the previously reported method (Li, W., et al., Simultaneous generation and germline transmission of multiple gene mutations in rat using CRISPR-Cas systems. Nat Biotechnol, 2013. 31(8): p. 684-6). The reannealed product was added with 0.3 uL of T7EI endnucelease and 1/10 V NEBuffer2 (NEB), and digested at 37° C. for 1 h 30 min. Genotype analysis was performed by 3% TAE-Gel electrophoresis. Indels were calculated according to the method reported in the previous article (Cong, L., et al., Multiplex genome engineering using CRISPR/Cas systems. Science, 2013. 339(6121): p. 819-23).
The cells were transfected with Cpf1, crRNA31, and crRNA2 plasmids, and it was confirmed by PCR and T7EI analysis that crRNA31 can increase the editing efficiency of five Cpf1s of ArCpf1, BsCpf1, HkCpf1, PrCpf1, and PxCpf1 at the site MeCP2-4 by two folds (FIG. 13B).

B1: crRNA31 MeCP2 site 4 ; Mouse MeCP2 site 4 (ssRNA ; dsDNA)
RNA: AUUUCUACUAUGGUAGAUGUGUCCAACCUUCAGGCAAGGUG
DNA 1: TTTCGTGTCCAACCTTCAGGCAAGGTG
DNA 2: CACCTTGCCTGAAGGTTGGACACGAAA
  editing efficiency: ~2 fold vs crRNA2
